Numbering of substitutions follows the chain as printed. Blank lines part the entries; values can stand above or below the binder they belong to.
Key:
[1] = target: T1, GST-BIN2 (BR-… 2, GSK3-like kinase) (Arabidopsis thaliana, UniProt Q39011 1-380); test: far-Western, overlay or dot blot; overlay assay in vitro (Figure S5A); format not told; details: both partners purified
T1 construct: GST-BIN2 is the only recombinant wild-type BIN2 described (methods 4.11); also called brassinosteroid-insensitive 2; source: E. coli, purified
T1 sequence (looked up): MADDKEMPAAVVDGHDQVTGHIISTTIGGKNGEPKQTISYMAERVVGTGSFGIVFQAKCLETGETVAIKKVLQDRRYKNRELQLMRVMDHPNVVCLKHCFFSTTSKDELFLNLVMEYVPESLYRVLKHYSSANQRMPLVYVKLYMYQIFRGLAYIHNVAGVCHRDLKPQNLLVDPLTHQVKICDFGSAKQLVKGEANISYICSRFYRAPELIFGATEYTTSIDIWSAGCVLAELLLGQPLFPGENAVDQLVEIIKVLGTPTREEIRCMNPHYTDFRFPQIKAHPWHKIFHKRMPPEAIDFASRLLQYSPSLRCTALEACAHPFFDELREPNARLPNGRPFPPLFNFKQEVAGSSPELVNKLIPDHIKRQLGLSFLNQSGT

GST-IBH1 = target: T2, GST-IBH1 (Arabidopsis thaliana, UniProt Q9SKX1 1-156); test: pull-down; 1 μg GST-IBH1 on glutathione beads with 1 μg MBP fusion; 20 mM Tris-HCl pH 7.5, 100 mM NaCl, 1 mM EDTA; washes with 300 mM NaCl, 0.5% Triton X-100; anti-MBP immunoblot; details: both partners purified
T2 construct: also called glutathione S-transferase (GST)-IBH1; source: bacteria, purified on glutathione beads; not shown: GST, N-terminal, kept
T2 sequence (looked up): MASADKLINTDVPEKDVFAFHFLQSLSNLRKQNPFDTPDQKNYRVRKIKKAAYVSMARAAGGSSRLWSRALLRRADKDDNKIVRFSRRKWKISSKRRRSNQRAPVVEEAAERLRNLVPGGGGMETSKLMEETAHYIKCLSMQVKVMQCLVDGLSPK

- binding result [1]: binds
- binding result (GST-IBH1): binds
B1: MBP-PRE1 (natural protein, Arabidopsis thaliana, UniProt Q9FLE9 1-92, looked up)
chain: MSNRRSRQSSSAPRISDNQMIDLVSKLRQILPEIGQRRRSDKASASKVLQETCNYIRNLNREVDNLSERLSQLLESVDEDSPEAAVIRSLLM
notes: MBP-PRE1 is the only recombinant PRE1 described; source: E. coli, purified on amylose resin beads; not shown: MBP, N-terminal, kept

- binding result (GST-IBH1): binds
B2: MBP-PRE1^S67A (natural protein, Arabidopsis thaliana, UniProt Q9FLE9 1-92, looked up)
chain: B1 chain with S67A
notes: source: E. coli, purified on amylose resin beads; not shown: MBP, N-terminal, kept
